# ChEMBL document CHEMBL4825729, “Modulators of immunoregulatory exonucleases PLD3 and PLD4 identified by high-throughput screen” (Bioorg Med Chem Lett, 2021)
# T1: 5'-3' exonuclease PLD4 (Homo sapiens, UniProt Q96BZ4)
# T1 sequence (Q96BZ4 whole entry): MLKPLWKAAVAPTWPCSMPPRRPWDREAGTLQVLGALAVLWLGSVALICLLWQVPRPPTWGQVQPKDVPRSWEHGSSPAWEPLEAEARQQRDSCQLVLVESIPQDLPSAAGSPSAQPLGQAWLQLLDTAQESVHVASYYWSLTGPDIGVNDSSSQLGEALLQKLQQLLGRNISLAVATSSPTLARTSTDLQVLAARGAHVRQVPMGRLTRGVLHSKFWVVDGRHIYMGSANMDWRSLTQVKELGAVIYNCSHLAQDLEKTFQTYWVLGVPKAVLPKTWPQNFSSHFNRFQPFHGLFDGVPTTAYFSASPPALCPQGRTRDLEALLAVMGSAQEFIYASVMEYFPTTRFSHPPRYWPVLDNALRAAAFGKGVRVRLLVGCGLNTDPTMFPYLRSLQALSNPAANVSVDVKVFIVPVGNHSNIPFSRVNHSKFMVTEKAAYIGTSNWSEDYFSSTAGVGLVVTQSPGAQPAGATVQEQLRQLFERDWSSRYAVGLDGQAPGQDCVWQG
# T2: 5'-3' exonuclease PLD3 (Homo sapiens, UniProt Q8IV08)
# T2 sequence (Q8IV08 whole entry): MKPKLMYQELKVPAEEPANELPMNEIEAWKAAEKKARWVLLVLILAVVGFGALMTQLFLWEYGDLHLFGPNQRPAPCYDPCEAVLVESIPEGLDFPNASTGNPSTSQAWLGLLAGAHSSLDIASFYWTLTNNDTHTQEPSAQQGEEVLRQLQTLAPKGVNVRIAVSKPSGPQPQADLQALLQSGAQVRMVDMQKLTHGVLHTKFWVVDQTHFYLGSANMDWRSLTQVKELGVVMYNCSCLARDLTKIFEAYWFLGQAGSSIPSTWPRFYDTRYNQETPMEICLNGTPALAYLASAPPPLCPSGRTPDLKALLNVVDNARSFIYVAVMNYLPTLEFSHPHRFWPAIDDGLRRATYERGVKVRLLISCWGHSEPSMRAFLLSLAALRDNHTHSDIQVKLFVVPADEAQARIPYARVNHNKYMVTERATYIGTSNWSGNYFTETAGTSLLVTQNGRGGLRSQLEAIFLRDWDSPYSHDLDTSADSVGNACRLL
# T3: 5'-3' exonuclease PLD3 (Homo sapiens) (UniProt Q8IV08)
# T3 sequence (whole entry): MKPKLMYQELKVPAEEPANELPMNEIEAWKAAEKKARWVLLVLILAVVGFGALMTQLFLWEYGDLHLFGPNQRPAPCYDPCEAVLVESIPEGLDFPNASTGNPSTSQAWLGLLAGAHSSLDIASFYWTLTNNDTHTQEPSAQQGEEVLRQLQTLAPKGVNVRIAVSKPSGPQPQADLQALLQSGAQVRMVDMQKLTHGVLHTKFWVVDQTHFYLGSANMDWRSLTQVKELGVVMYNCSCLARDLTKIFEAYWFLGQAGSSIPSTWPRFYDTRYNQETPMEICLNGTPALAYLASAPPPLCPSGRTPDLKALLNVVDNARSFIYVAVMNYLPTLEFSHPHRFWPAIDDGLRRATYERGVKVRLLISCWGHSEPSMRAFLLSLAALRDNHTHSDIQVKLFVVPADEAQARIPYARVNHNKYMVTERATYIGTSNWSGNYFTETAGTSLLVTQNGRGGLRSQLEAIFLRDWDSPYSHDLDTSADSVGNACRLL
# T4: 5'-3' exonuclease PLD4 (Homo sapiens) (UniProt Q96BZ4)
# T4 sequence (whole entry): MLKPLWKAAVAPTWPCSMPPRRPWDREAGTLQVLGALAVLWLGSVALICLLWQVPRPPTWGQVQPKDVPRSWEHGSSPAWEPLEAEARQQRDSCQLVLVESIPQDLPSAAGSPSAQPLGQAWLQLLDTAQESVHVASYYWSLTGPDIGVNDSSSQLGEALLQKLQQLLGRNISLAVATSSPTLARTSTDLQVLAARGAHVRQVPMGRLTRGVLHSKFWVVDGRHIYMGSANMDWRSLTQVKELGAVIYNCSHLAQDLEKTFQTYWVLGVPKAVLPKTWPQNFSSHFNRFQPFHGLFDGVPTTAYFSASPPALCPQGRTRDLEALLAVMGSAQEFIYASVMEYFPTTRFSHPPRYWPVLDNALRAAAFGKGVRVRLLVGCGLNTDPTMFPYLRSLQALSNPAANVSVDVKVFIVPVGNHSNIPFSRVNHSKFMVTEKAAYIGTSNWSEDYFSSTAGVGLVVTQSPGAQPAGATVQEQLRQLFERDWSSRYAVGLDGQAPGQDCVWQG
# Experiments:
# [1] = target: T1, 5'-3' exonuclease PLD4; experiment: Inhibition of PLD4 (unknown origin) using 3'-dT-MUP as substrate by fluorescence-based screening assay
# [2] = target: T2, 5'-3' exonuclease PLD3; experiment: Inhibition of PLD3 (unknown origin) using 3'-dT-MUP as substrate by fluorescence-based screening assay
# [3] = target: T3, 5'-3' exonuclease PLD3 (Homo sapiens); experiment: Mixed type inhibition of PLD3 (unknown origin) assessed as Km using varying concentration 3'-dT-MUP as substrate by fluorescence-based screening assay
# [4] = target: T1, 5'-3' exonuclease PLD4; experiment: Inhibition of PLD4 (unknown origin) using 3'-dT-nNPP as substrate by fluorescence-based screening assay
# [5] = target: T4, 5'-3' exonuclease PLD4 (Homo sapiens); experiment: Competitive inhibition of PLD4 (unknown origin) assessed as Km using varying concentration 3'-dT-MUP as substrate by fluorescence-based screening assay
# [6] = target: T3, 5'-3' exonuclease PLD3 (Homo sapiens); experiment: Mixed type inhibition of PLD3 (unknown origin) assessed as binding constant using varying concentration 3'-dT-MUP as substrate by fluorescence-based screening assay
# [7] = target: T2, 5'-3' exonuclease PLD3; experiment: Inhibition of PLD3 (unknown origin) using 3'-dT-nNPP as substrate by fluorescence-based screening assay
# [8] = target: T4, 5'-3' exonuclease PLD4 (Homo sapiens); experiment: Competitive inhibition of PLD4 (unknown origin) assessed as binding constant using varying concentration 3'-dT-MUP as substrate by fluorescence-based screening assay
# [9] = compound: Cc1nc(SCC(=O)N2CCC(C)CC2)c2ccsc2n1; experiment: Activation of PLD3 (unknown origin) assessed as Km using varying concentration 3'-dT-MUP as substrate by fluorescence-based screening assay; conditions: Homo sapiens; filed as activator
# [10] = compound: Cc1cc(C)cc(N2CCn3c2nc2c3c(=O)n(CC(=O)O)c(=N)n2C)c1; experiment: (§1) Mixed type inhibition of PLD3 (unknown origin) assessed as Vmax using varying concentration 3'-dT-MUP as substrate by fluorescence-based screening assay; conditions: Homo sapiens
# [11] = compound: Cc1ccc(Cn2c(SCC(=O)O)nc3c2c(=O)n(C)c(=O)n3C)cc1; experiment: as §1; conditions: Homo sapiens
# [12] = substrate: Cc1cn([C@H]2C[C@H](O)[C@@H](COP(=O)(O)Oc3ccc([N+](=O)[O-])cc3)O2)c(=O)[nH]c1=O; experiment: (§2) Substrate activity at PLD3 (unknown origin) assessed as ratio of Kcat to Km by Michaelis-Menten kinetic model based fluorescence assay; conditions: Homo sapiens
# [13] = substrate: Cc1cn([C@H]2C[C@H](OP(=O)(O)Oc3ccc([N+](=O)[O-])cc3)[C@@H](CO)O2)c(=O)[nH]c1=O; experiment: as §2; conditions: Homo sapiens
# [14] = compound: Cc1nc(SCC(=O)N2CCC(C)CC2)c2ccsc2n1; experiment: Activation of PLD3 (unknown origin) assessed as Vmax using varying concentration 3'-dT-MUP as substrate by fluorescence-based screening assay; conditions: Homo sapiens; filed as activator
# [15] = substrate: Cc1cn([C@H]2C[C@H](O)[C@@H](COP(=O)(O)Oc3ccc([N+](=O)[O-])cc3)O2)c(=O)[nH]c1=O; experiment: (§3) Substrate activity at PLD3 (unknown origin) assessed as Km by Michaelis-Menten kinetic model based fluorescence assay; conditions: Homo sapiens
# [16] = substrate: Cc1cn([C@H]2C[C@H](OP(=O)(O)Oc3ccc([N+](=O)[O-])cc3)[C@@H](CO)O2)c(=O)[nH]c1=O; experiment: as §3; conditions: Homo sapiens
# [17] = substrate: Cc1cn([C@H]2C[C@H](O)[C@@H](COP(=O)(O)Oc3ccc([N+](=O)[O-])cc3)O2)c(=O)[nH]c1=O; experiment: (§4) Substrate activity at PLD3 (unknown origin) assessed as Kcat by Michaelis-Menten kinetic model based fluorescence assay; conditions: Homo sapiens
# [18] = substrate: Cc1cn([C@H]2C[C@H](OP(=O)(O)Oc3ccc([N+](=O)[O-])cc3)[C@@H](CO)O2)c(=O)[nH]c1=O; experiment: as §4; conditions: Homo sapiens
# [19] = substrate: Cc1cn([C@H]2C[C@H](O)[C@@H](COP(=O)(O)Oc3ccc([N+](=O)[O-])cc3)O2)c(=O)[nH]c1=O; experiment: (§5) Substrate activity at PLD4 (unknown origin) assessed as Kcat by Michaelis-Menten kinetic model based fluorescence assay; conditions: Homo sapiens
# [20] = substrate: Cc1cn([C@H]2C[C@H](OP(=O)(O)Oc3ccc([N+](=O)[O-])cc3)[C@@H](CO)O2)c(=O)[nH]c1=O; experiment: as §5; conditions: Homo sapiens
# [21] = compound: Cc1cc(C)cc(N2CCn3c2nc2c3c(=O)n(CC(=O)O)c(=N)n2C)c1; experiment: Competitive inhibition of PLD4 (unknown origin) assessed as Vmax using varying concentration 3'-dT-MUP as substrate by fluorescence-based screening assay; conditions: Homo sapiens
# [22] = substrate: Cc1cn([C@H]2C[C@H](O)[C@@H](COP(=O)(O)Oc3ccc([N+](=O)[O-])cc3)O2)c(=O)[nH]c1=O; experiment: (§6) Substrate activity at PLD4 (unknown origin) assessed as Km by Michaelis-Menten kinetic model based fluorescence assay; conditions: Homo sapiens
# [23] = substrate: Cc1cn([C@H]2C[C@H](OP(=O)(O)Oc3ccc([N+](=O)[O-])cc3)[C@@H](CO)O2)c(=O)[nH]c1=O; experiment: as §6; conditions: Homo sapiens
# [24] = substrate: Cc1cn([C@H]2C[C@H](O)[C@@H](COP(=O)(O)Oc3ccc([N+](=O)[O-])cc3)O2)c(=O)[nH]c1=O; experiment: (§7) Substrate activity at PLD4 (unknown origin) assessed as ratio of Kcat to Km by Michaelis-Menten kinetic model based fluorescence assay; conditions: Homo sapiens
# [25] = substrate: Cc1cn([C@H]2C[C@H](OP(=O)(O)Oc3ccc([N+](=O)[O-])cc3)[C@@H](CO)O2)c(=O)[nH]c1=O; experiment: as §7; conditions: Homo sapiens
molecule,measurement,setting,value
Cc1cc(C)cc(N2CCn3c2nc2c3c(=O)n(CC(=O)O)c(=N)n2C)c1,IC50,[1],14.7 µM
same,IC50,[2],39.6 µM
same,INH,[3],14.9 µM
same,IC50,[4],19 µM
same,INH,[5],64.5 µM
same,INH,[6],28.9 µM
same,IC50,[7],127 µM
same,INH,[8],32.4 µM
"5'-3' exonuclease PLD3 (Homo sapiens), Q8IV08 (protein) MKPKLMYQELKVPAEEPANELPMNEIEAWKAAEKKARWVLLVLILAVVGFGALMTQLFLWEYGDLHLFGPNQRPAPCYDPCEAVLVESIPEGLDFPNASTGNPSTSQAWLGLLAGAHSSLDIASFYWTLTNNDTHTQEPSAQQGEEVLRQLQTLAPKGVNVRIAVSKPSGPQPQADLQALLQSGAQVRMVDMQKLTHGVLHTKFWVVDQTHFYLGSANMDWRSLTQVKELGVVMYNCSCLARDLTKIFEAYWFLGQAGSSIPSTWPRFYDTRYNQETPMEICLNGTPALAYLASAPPPLCPSGRTPDLKALLNVVDNARSFIYVAVMNYLPTLEFSHPHRFWPAIDDGLRRATYERGVKVRLLISCWGHSEPSMRAFLLSLAALRDNHTHSDIQVKLFVVPADEAQARIPYARVNHNKYMVTERATYIGTSNWSGNYFTETAGTSLLVTQNGRGGLRSQLEAIFLRDWDSPYSHDLDTSADSVGNACRLL",Km,[9],14.7 µM
same,Vmax,[10],318 /RU/s
same,Vmax,[11],313 /RU/s
same,kcat,[12],74.5 s⁻¹
same,kcat,[13],18.9 s⁻¹
same,Vmax,[14],327 /RU/s
same,Km,[15],1350 µM
same,Km,[16],302 µM
same,kcat/Km,[17],34.8 M⁻¹ s⁻¹
same,kcat/Km,[18],6.26 M⁻¹ s⁻¹
"5'-3' exonuclease PLD4 (Homo sapiens), Q96BZ4 (protein) MLKPLWKAAVAPTWPCSMPPRRPWDREAGTLQVLGALAVLWLGSVALICLLWQVPRPPTWGQVQPKDVPRSWEHGSSPAWEPLEAEARQQRDSCQLVLVESIPQDLPSAAGSPSAQPLGQAWLQLLDTAQESVHVASYYWSLTGPDIGVNDSSSQLGEALLQKLQQLLGRNISLAVATSSPTLARTSTDLQVLAARGAHVRQVPMGRLTRGVLHSKFWVVDGRHIYMGSANMDWRSLTQVKELGAVIYNCSHLAQDLEKTFQTYWVLGVPKAVLPKTWPQNFSSHFNRFQPFHGLFDGVPTTAYFSASPPALCPQGRTRDLEALLAVMGSAQEFIYASVMEYFPTTRFSHPPRYWPVLDNALRAAAFGKGVRVRLLVGCGLNTDPTMFPYLRSLQALSNPAANVSVDVKVFIVPVGNHSNIPFSRVNHSKFMVTEKAAYIGTSNWSEDYFSSTAGVGLVVTQSPGAQPAGATVQEQLRQLFERDWSSRYAVGLDGQAPGQDCVWQG",Km,[19],860 µM
same,Km,[20],378 µM
same,Vmax,[21],1560 /RU/s
same,kcat,[22],47 s⁻¹
same,kcat,[23],18.9 s⁻¹
same,kcat/Km,[24],86.6 M⁻¹ s⁻¹
same,kcat/Km,[25],5 M⁻¹ s⁻¹
